The values that follow come from IntAct's records for PubMed 23940353.

B1: Cytohesin-3 (Homo sapiens), O43739-2 (parent)
chain: MDEDGGGEGGGVPEDLSLEEREELLDIRRRKKELIDDIERLKYEIAEVMTEIDNLTSVEESKTTQRNKQIAMGRKKFNMDPKKGIQFLIENDLLQSSPEDVAQFLYKGEGLNKTVIGDYLGERDEFNIKVLQAFVELHEFADLNLVQALRQFLWSFRLPGEAQKIDRMMEAFASRYCLCNPGVFQSTDTCYVLSFAIIMLNTSLHNHNVRDKPTAERFIAMNRGINEGGDLPEELLRNLYESIKNEPFKIPEDDGNDLTHTFFNPDREGWLLKLGGRVKTWKRRWFILTDNCLYYFEYTTDKEPRGIIPLENLSIREVEDPRKPNCFELYNPSHKGQVIKACKTEADGRVVEGNHVVYRISAPSPEEKEEWMKSIKASISRDPFYDMLATRKRRIANKK
B2: ADP-ribosylation factor 6 (Homo sapiens), P62330 (parent)
chain: MGKVLSKIFGNKEMRILMLGLDAAGKTTILYKLKLGQSVTTIPTVGFNVETVTYKNVKFNVWDVGGQDKIRPLWRHYYTGTQGLIFVVDCADRDRIDEARQELHRIINDREMRDAIILIFANKQDLPDAMKPHEIQEKLGLTRIRDRNWYVQPSCATSGDGLYEGLTWLTSNYKS

Variants of B1 are the subject of the assay “arf6_human ARF6, P62330”. The note with it: with arf6_human ARF6, P62330.
The variants in the assay “CYTH3, O43739-2” derive from B2. To be noted: with CYTH3, O43739-2.
The variants in the assay “CYTH1, Q15438-2” derive from B2. To be noted: with CYTH1, Q15438-2.
Sequence of CYTH1, Q15438-2 (Q15438 other isoform, or with tags, fused parts or gaps): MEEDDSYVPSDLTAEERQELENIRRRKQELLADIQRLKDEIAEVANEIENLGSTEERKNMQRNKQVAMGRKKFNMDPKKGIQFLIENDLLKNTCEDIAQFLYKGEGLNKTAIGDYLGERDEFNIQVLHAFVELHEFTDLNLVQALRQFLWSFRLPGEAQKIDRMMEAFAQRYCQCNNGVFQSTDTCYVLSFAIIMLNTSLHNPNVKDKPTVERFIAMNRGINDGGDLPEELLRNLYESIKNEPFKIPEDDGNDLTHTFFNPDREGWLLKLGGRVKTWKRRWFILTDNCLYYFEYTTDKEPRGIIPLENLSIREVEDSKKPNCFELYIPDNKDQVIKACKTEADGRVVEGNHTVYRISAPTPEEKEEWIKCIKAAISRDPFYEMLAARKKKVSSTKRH
The assay “CYTH2, Q99418-2” covers variants of B2. To be noted: with CYTH2, Q99418-2.
Sequence of CYTH2, Q99418-2 (Q99418 other isoform, or with tags, fused parts or gaps): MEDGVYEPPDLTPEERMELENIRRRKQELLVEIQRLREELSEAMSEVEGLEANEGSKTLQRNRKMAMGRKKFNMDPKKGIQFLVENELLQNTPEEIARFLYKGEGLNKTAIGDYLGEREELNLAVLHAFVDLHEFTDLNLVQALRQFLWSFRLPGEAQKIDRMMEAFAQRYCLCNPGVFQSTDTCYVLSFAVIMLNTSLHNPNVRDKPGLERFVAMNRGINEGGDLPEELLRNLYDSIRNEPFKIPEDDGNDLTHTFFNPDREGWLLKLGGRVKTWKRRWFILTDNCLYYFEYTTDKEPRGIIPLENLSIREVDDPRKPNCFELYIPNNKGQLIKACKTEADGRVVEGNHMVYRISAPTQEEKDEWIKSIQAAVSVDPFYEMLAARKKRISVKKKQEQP

Consider MDEDGGGEGGGVPEDLSLEEREELLDIRRRKKELIDDIERLKYEIAEVMTEIDNLTSVEESKTTQRNKQIAMGRKKFNMDPKKGIQFLIENDLLQSSPEDVAQFLYKGEGLNKTVIGDYLGERDEFNIKVLQAFVELHEFADLNLVQALRQFLWSFRLPGEAQKIDRMMEAFASRYCLCNPGVFQSTDTCYVLSFAIIMLNTSLHNHNVRDKPTAERFIAMNRGINEGGDLPEELLRNLYESIKNEPFKIPEDDGNDLTHTFFNPDREGWLLKLGGRVKTWKRRWFILTDNCLYYFEYTTDKEPRGIIPLENLSIREVEDPRKPNCFELYNPSHKGQVIKACKTEADGRVVEGNHVVYRISAPSPEEKEEWMKSIKASISRDPFYDMLATRARRIANKK [K392A], for which the “effect of a mutation on the interaction” value with arf6_human ARF6, P62330 is reported as “decreasing interaction strength”.

Turning to MDEDGGGEGGGVPEDLSLEEREELLDIRRRKKELIDDIERLKYEIAEVMTEIDNLTSVEESKTTQRNKQIAMGRKKFNMDPKKGIQFLIENDLLQSSPEDVAQFLYKGEGLNKTVIGDYLGERDEFNIKVLQAFVELHEFADLNLVQALRQFLWSFRLPGEAQKIDRMMEAFASRYCLCNPGVFQSTDTCYVLSFAIIMLNTSLHNHNVRDKPTAERFIAMNRGINEGGDLPEELLRNLYESIKNEPFKIPEDDGNDLTHTFFNPDREGWLLKLGGRVKTWKRRWFILTDNCLYYFEYTTDKEPRGIIPLENLSIREVEDPRKPNCFELYNPSHKGQVIKACKTEADGRVVEGNHVVYRISAPSPEEKEEWMKSIKASISRDPFYDMAATRKRRIANKK [L388A], the “effect of a mutation on the interaction” value with arf6_human ARF6, P62330 was “decreasing interaction strength”. With Q67L, the “effect of a mutation on the interaction” value with CYTH3, O43739-2 was “with no effect”; with CYTH1, Q15438-2, “with no effect”; with CYTH2, Q99418-2, “with no effect”.
